The values that follow come from patent KR20230010676A.

The target in the assay is SARS-CoV-2 스파이크 D19 (VSV 슈도바이러스) (SARS-CoV-2) (UniProt P0DTC2). As to the kind of experiment: cell-based or functional assay.

In turn, S2D106-LS (antibody) gave an EC50 (neutralisation, interpolated) of 3.6 ng/mL; an EC90 (neutralisation, interpolated) of 15.4 ng/mL; an IC50 (neutralisation) of 3.38 ng/mL.
